Target: T1, Full-length recombinant FVIII (Kogenate FS) (Homo sapiens, UniProt P00451)
T1 construct: coagulation factor VIII, human, full-length recombinant (Kogenate FS); also called coagulation factor VIII; source: provided by Bayer Healthcare (Kogenate FS), reconstituted and dialyzed into Borate Buffer
Test: ELISA; FVIII (6.6 nM in PBS) coated; Bo2C11 serially diluted 1:3 from 60 nM; detected by anti-human IgG
Settings: both partners purified

T1 sequence (P00451 20-2351): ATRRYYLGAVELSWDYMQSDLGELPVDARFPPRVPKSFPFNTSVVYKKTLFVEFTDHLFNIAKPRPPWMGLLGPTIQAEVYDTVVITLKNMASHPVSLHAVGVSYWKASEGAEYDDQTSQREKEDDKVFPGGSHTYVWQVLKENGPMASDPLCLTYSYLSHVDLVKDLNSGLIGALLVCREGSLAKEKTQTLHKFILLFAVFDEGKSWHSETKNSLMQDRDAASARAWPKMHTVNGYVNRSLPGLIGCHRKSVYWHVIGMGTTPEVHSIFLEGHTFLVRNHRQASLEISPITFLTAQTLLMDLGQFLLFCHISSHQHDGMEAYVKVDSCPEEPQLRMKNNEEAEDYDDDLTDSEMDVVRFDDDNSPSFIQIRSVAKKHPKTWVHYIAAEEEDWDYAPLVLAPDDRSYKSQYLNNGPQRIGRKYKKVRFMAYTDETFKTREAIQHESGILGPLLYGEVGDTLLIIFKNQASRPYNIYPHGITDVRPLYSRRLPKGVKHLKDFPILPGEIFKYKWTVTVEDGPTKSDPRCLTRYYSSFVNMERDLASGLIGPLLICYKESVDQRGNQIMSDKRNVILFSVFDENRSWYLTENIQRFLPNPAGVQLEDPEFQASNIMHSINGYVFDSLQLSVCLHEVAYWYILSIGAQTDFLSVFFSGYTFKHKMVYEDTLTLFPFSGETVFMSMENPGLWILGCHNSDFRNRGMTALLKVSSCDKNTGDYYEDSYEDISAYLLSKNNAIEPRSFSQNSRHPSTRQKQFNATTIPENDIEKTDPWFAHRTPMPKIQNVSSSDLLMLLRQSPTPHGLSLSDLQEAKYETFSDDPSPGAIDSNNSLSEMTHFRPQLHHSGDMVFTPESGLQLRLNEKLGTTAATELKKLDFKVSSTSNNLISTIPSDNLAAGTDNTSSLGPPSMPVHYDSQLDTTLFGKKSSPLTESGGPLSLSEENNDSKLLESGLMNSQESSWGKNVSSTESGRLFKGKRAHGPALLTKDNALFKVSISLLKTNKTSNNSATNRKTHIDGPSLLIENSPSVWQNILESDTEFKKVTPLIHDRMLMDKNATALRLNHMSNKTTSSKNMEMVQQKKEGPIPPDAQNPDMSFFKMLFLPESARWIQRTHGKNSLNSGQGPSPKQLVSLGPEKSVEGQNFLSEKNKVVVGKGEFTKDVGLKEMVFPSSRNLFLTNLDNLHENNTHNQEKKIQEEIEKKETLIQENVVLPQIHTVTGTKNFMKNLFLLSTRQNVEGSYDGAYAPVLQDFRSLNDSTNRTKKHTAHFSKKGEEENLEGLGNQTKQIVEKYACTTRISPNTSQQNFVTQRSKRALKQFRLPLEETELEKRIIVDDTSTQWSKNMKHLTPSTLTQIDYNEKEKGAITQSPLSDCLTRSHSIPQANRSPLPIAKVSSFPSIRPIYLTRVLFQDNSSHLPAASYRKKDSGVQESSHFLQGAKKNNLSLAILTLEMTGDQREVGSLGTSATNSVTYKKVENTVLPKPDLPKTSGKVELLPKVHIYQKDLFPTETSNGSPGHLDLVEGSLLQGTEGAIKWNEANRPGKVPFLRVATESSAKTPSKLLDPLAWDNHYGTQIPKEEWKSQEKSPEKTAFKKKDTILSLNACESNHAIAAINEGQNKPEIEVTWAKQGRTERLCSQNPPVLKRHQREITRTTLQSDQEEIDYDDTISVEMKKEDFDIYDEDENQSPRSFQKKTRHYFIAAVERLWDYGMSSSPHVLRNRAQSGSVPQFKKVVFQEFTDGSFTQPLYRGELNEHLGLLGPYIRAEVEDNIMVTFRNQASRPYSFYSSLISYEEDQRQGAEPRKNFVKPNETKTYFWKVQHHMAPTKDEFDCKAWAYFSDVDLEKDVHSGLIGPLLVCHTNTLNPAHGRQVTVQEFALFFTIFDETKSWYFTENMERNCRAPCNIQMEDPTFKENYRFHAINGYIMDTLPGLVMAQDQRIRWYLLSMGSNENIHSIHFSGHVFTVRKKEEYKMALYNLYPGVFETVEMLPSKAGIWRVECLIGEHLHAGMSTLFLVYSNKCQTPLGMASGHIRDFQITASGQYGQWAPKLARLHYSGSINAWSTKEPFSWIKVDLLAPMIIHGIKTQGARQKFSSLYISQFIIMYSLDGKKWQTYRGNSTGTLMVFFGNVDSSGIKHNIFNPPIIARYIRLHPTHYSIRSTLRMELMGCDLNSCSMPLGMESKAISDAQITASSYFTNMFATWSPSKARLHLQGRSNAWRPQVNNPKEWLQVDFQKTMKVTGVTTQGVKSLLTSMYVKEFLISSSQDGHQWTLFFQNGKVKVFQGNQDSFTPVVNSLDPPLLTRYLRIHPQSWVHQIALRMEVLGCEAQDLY

EC50: 2.66 nM
B1: human monoclonal anti-FVIII antibody Bo2C11 (antibody, V domains shown)
VH: QVQLVQSGAEVKKPGASVKVSCKVSGYTLTELPVHWVGQAPGKGLEWVGSFDPESGESIYAREFQGSVTMTADTSTDIAYMELSSLRSDDTAVYYCAVPDPDAFDIWGQGTMVTVSS
VL: EIALTQSPGTLSLSPGERATLSCRASQSFSSSYLAWYQQKPGQAPRLLIYGASTRATGIPDRFSGSGSGTDFTLTISRLEPEDFAVYYCQKYGTSAITFGQGTRLEIK

Source: PMC3634029 (PLoS ONE, 2013)
